85 variants from IntAct's records for PubMed 29039417 can be followed below.

B1: BBSome-interacting protein 1 (Homo sapiens), A8MTZ0 (parent)
chain: MLKAAAKRPELSGKNTISNNSDMAEVKSMFREVLPKQGPLFVEDIMTMVLCKPKLLPLKSLTLEKLEKMHQAAQNTIRQQEMAEKDQRQITH
partner: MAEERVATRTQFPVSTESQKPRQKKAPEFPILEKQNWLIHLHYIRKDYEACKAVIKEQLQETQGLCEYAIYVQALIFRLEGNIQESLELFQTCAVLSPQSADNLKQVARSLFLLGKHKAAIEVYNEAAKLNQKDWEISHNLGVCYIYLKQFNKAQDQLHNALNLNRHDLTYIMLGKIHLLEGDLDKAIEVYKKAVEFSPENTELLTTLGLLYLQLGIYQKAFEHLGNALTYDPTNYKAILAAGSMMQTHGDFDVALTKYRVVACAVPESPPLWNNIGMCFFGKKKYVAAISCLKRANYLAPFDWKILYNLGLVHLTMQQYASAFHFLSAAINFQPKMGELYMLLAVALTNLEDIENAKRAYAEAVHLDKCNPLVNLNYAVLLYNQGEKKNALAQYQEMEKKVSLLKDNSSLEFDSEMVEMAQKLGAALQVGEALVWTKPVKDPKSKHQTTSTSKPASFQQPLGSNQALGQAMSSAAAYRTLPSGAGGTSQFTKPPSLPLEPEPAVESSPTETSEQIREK

In the assay the parent is B1. The following applies: with bbs4_human BBS4, Q96RK4.
With N19K, the “effect of a mutation on the interaction” value was “with no effect”.

On to N19A, for which the “effect of a mutation on the interaction” value is on record as “with no effect”.

In the case of N19E, the “effect of a mutation on the interaction” value was “with no effect”.

Take A24E: the “effect of a mutation on the interaction” value is reported as “with no effect”.

As for A24K, the “effect of a mutation on the interaction” value is listed as “with no effect”.

In the case of S18E, the “effect of a mutation on the interaction” value is “with no effect”.

In the case of S18A, the “effect of a mutation on the interaction” value is on record as “with no effect”.

Consider S18K, for which the “effect of a mutation on the interaction” value was “with no effect”.

Regarding L34E, the “effect of a mutation on the interaction” value was “with no effect”.

With L34A, the “effect of a mutation on the interaction” value is on record as “disrupting interaction strength”.

On to L34R, for which the “effect of a mutation on the interaction” value was “disrupting interaction strength”.

As to L34D, the “effect of a mutation on the interaction” value is “disrupting interaction strength”.

Regarding L34P, the “effect of a mutation on the interaction” value was “disrupting interaction strength”.

Regarding L34K, the “effect of a mutation on the interaction” value was “with no effect”.

As to L34H, the “effect of a mutation on the interaction” value was “disrupting interaction strength”.

Regarding V33E, the “effect of a mutation on the interaction” value was “with no effect”.

Consider V33A, for which the “effect of a mutation on the interaction” value is listed as “with no effect”.

On to V33K, for which the “effect of a mutation on the interaction” value is listed as “with no effect”.

Regarding E32K, the “effect of a mutation on the interaction” value was “disrupting interaction strength”.

As for E32A, the “effect of a mutation on the interaction” value is recorded as “with no effect”.

N20A: the “effect of a mutation on the interaction” value is reported as “with no effect”.

As for N20K, the “effect of a mutation on the interaction” value is listed as “with no effect”.

As to N20E, the “effect of a mutation on the interaction” value was “with no effect”.

With M23K, the “effect of a mutation on the interaction” value is recorded as “with no effect”.

For M23A, the “effect of a mutation on the interaction” value is given as “with no effect”.

Consider M23E, for which the “effect of a mutation on the interaction” value is listed as “with no effect”.

Turning to P35T, the “effect of a mutation on the interaction” value is recorded as “disrupting interaction strength”.

For P35R, the “effect of a mutation on the interaction” value was “disrupting interaction strength”.

In the case of P35S, the “effect of a mutation on the interaction” value was “disrupting interaction strength”.

In the case of P35A, the “effect of a mutation on the interaction” value is on record as “with no effect”.

As to P35K, the “effect of a mutation on the interaction” value is given as “with no effect”.

For P35E, the “effect of a mutation on the interaction” value is given as “with no effect”.

With M29E, the “effect of a mutation on the interaction” value is “with no effect”.

As for M29A, the “effect of a mutation on the interaction” value is listed as “with no effect”.

For the variant M29K, the “effect of a mutation on the interaction” value is reported as “with no effect”.

Consider M29F, for which the “effect of a mutation on the interaction” value is reported as “disrupting interaction strength”.

Turning to E25K, the “effect of a mutation on the interaction” value is “with no effect”.

Take E25A: the “effect of a mutation on the interaction” value is on record as “with no effect”.

With N15K, the “effect of a mutation on the interaction” value is listed as “with no effect”.

Take N15E: the “effect of a mutation on the interaction” value was “with no effect”.

As to N15A, the “effect of a mutation on the interaction” value is reported as “with no effect”.

On to V26K, for which the “effect of a mutation on the interaction” value is reported as “with no effect”.

On to V26E, for which the “effect of a mutation on the interaction” value is reported as “with no effect”.

V26A: the “effect of a mutation on the interaction” value is on record as “with no effect”.

With I17E, the “effect of a mutation on the interaction” value is given as “with no effect”.

On to I17A, for which the “effect of a mutation on the interaction” value is listed as “with no effect”.

For I17K, the “effect of a mutation on the interaction” value is on record as “with no effect”.

In the case of K36A, the “effect of a mutation on the interaction” value is “with no effect”.

For K36P, the “effect of a mutation on the interaction” value was “disrupting interaction strength”.

With K36E, the “effect of a mutation on the interaction” value is on record as “with no effect”.

Take K36Y: the “effect of a mutation on the interaction” value was “disrupting interaction strength”.

Regarding S12K, the “effect of a mutation on the interaction” value is “with no effect”.

With S12E, the “effect of a mutation on the interaction” value is recorded as “with no effect”.

With S12A, the “effect of a mutation on the interaction” value is listed as “with no effect”.

Q37A: the “effect of a mutation on the interaction” value was “with no effect”.

With R31K, the “effect of a mutation on the interaction” value is reported as “with no effect”.

For R31E, the “effect of a mutation on the interaction” value is listed as “with no effect”.

R31A: the “effect of a mutation on the interaction” value was “with no effect”.

For K27E, the “effect of a mutation on the interaction” value is reported as “with no effect”.

As for K27S, the “effect of a mutation on the interaction” value was “disrupting interaction strength”.

In the case of K27L, the “effect of a mutation on the interaction” value is reported as “disrupting interaction strength”.

With K27A, the “effect of a mutation on the interaction” value was “with no effect”.

K27Y: the “effect of a mutation on the interaction” value was “disrupting interaction strength”.

With D22E, the “effect of a mutation on the interaction” value was “with no effect”.

Regarding D22A, the “effect of a mutation on the interaction” value is listed as “with no effect”.

Regarding D22K, the “effect of a mutation on the interaction” value is “with no effect”.

F30S: the “effect of a mutation on the interaction” value is reported as “disrupting interaction strength”.

Take F30A: the “effect of a mutation on the interaction” value is listed as “with no effect”.

For F30K, the “effect of a mutation on the interaction” value is “with no effect”.

Take F30E: the “effect of a mutation on the interaction” value was “with no effect”.

Consider T16A, for which the “effect of a mutation on the interaction” value is on record as “with no effect”.

For T16K, the “effect of a mutation on the interaction” value is listed as “with no effect”.

Turning to T16E, the “effect of a mutation on the interaction” value is reported as “with no effect”.

For the variant S21A, the “effect of a mutation on the interaction” value is recorded as “with no effect”.

On to S21E, for which the “effect of a mutation on the interaction” value is recorded as “with no effect”.

In the case of S21K, the “effect of a mutation on the interaction” value is listed as “with no effect”.

On to K14L, for which the “effect of a mutation on the interaction” value is “disrupting interaction strength”.

Take K14A: the “effect of a mutation on the interaction” value is on record as “with no effect”.

In the case of K14E, the “effect of a mutation on the interaction” value is on record as “with no effect”.

For the variant S28E, the “effect of a mutation on the interaction” value was “with no effect”.

Consider S28A, for which the “effect of a mutation on the interaction” value was “with no effect”.

Take S28K: the “effect of a mutation on the interaction” value is given as “with no effect”.

For the variant G13K, the “effect of a mutation on the interaction” value was “with no effect”.

As to G13E, the “effect of a mutation on the interaction” value is on record as “with no effect”.

G13A: the “effect of a mutation on the interaction” value is given as “with no effect”.
